Consider three molecules from article PMC5002451.

Read-outs that look alike come from different tables or passages of the source.

In series [1] the target is T1, RIG-I (human, UniProt O95786 1-925).
T1 sequence: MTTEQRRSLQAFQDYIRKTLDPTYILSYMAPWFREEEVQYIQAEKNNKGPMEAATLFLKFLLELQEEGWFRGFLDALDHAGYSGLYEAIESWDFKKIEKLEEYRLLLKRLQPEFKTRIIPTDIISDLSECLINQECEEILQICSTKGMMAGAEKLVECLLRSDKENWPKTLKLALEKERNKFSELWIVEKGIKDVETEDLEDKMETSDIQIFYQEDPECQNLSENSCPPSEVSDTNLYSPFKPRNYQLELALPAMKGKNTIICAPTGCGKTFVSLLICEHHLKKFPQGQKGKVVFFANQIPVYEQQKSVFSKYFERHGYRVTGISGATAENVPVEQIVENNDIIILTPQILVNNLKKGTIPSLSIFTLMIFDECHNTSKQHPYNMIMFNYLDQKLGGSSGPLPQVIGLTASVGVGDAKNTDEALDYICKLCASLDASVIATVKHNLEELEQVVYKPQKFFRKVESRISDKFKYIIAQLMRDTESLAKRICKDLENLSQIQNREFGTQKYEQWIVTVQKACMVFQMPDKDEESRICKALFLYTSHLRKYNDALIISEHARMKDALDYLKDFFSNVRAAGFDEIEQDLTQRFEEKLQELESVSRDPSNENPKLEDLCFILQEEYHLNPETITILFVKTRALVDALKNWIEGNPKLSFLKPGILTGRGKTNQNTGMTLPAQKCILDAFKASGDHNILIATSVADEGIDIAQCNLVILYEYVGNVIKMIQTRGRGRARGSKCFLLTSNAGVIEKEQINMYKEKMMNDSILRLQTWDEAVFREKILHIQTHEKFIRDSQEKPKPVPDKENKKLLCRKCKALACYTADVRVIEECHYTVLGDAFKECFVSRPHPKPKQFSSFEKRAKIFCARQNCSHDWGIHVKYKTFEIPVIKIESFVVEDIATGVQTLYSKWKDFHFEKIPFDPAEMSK
As to the kind of experiment: EMSA.

In series [2] the target is T1, RIG-I. Nature of the series: EMSA. This is another data set of the same source.

B1: 47R/25RI (dsRNA)
RNA 1: GGAAAAUGUAAAUGACAUAGGCGCGCUGAAAGGGAGAAGUGAAAGUG
RNA 2: CGCGCCUAUGUCAUUUACAUUUUCC
modifications: 5'-OH
Turning to B1, in the series with RIG-I [1], the binding result is given as “binds”.

B2: 3P-47R/25RI (dsRNA)
RNA 1: B1 RNA 1
RNA 2: CGCGCCUAUGUCAUUUACAUUUUCC
modifications: 5'-triphosphate (on 47R, implied by name)
B2: the binding result with RIG-I [2] is listed as “binds”.

B3: 3P-47R/25DI (DNA:RNA)
RNA: B1 RNA 1
DNA: CACTTTCACTTCTCCCTTTCAGCGC
modifications: 5'-triphosphate (on 47R, implied by name)
Regarding B3, the binding result in the series with RIG-I [2] is “binds”.
